A short description of this data set: soluble on expression in E. coli; label from the status in PepcDB or PDB records.
As to “MGSDKIHHHHHHMRKDEIMHIVSCADDNYARHLGGMFVSLLTNMDQEREVKLYVIDGGIKPDNKKRLEETTLKFGVPIEFLEVDTNMYEHAVESSHITKAAYYRISIPDLIKDESIKRMIYIDCDALVLEDISKLWDLDIAPYTVAAVEDAGQHERLKEMNVTDTGKYFNSGIMIIDFESWRKQNITEKVINFINEHPDEDFLVLHDQDALNAILYDQWYELHPRWNAQTYIMLKLKTPSTLLGRKQYNETRENPAIVHFCGGEKPWNSNTKHPYRDEYFHYMSYTKWNTIGNPAINQ”, the “soluble on expression in E. coli” value is given as “not soluble”.

Turning to “MGSDKIHHHHHHMNILMLMLSDNPDTGGMEKHARELSSELARLGHTVTLAAASQHLSDLEPAVKTRALDTGGSRNSPFLLLTVLRLIRANGFDVIHAQGTKAAFVLQRLTPFTRSLMRVATIHGFKSRYPKAAAFHQLIAVSQALATDIAQPGVTVIYNGVSVIPQAPALLPKETERPVWLAVGRLVSVKGFDFLIRTFQYCPGTLLIAGDGPERQRLADLISSTHQSETVKLLGFRSDVPALMAAADGVVISSEREGFSYVCAEALLLGKPVISTDVPIANEILPEKHIFRGEDPKRFAAYLSQDTSTLVAEQAEAQAFAADQLSLSSMASQTLNVYQRAIANLVSIH”, the “soluble on expression in E. coli” value is “not soluble”.

As to “GMAEAKSRVGRPSGDTQNRDKLILAARNLFIERPYAQVSIREIASLAGTDPGLIRYYFGSKEKLFSTMIHETAMPVLAQLHKARRETRQESPAALLQTYYSVMSKHPHFPRLMLRIAGLDQSLPENAEVTKAFYEVVNFENIAIFQRLKDKNLLKDDVDAHCAQLSFFAMMVFPFIVPENLLERVGIELTPDFLQLLAEQNTRLLQRGLMDVKDERDE”, the “soluble on expression in E. coli” value is given as “soluble”.

As to “NTLGMVMHADGGYLGSKPYCASGQYIKRMSDYCRGCAYKVTESTTDDACPFNALYWHFLMRHSDQLRRNQRMGMIYKNLDRMAEAKQQALWERGEHLLARLDAGEAL”, the “soluble on expression in E. coli” value is “not soluble”.

For “MRLILPVGLIATTLAIAPVRFDREKVFRVKPQDEKQADIIKDLAKTNELDFWYPGATHHVAAKMMVDFRVSEKESQAIQSALDQNKMHYEILIHDLQEEIEKQFDVKEDIPGRHSYAKYNNWEKIVAWTEKMMDKYPEMVSRIKIGSTVEDNPLYVLKIGEKNERRKAIFMDCGIHAREWVSPAFCQWFVYQATKTYGRNKIMTKLLDRMNFYILPVFNVDGYIWSWTKNRMWRKNRSKNQNSKCIGTDLNRNFNASWNSIPNTNDPCADNYRGSAPESEKETKAVTNFIRSHLNEIKVYITFHSYSQMLLFPYGYTSKLPPNHEDLAKVAKIGTDVLSTRYETRYIYGPIESTIYPISGSSLDWAYDLGIKHTFAFELRDKGKFGFLLPESRIKPTCRETMLAVKFIAKYILKHTS”, the “soluble on expression in E. coli” value was “soluble”.

For the sequence “MAHHHHHHMSLHKEICNYIVKFSSKPVQRLGYEPPKKKRSILRELYHKLIFPYYFKFIRAPYERWQFCATTKFLREHGLMYDDMYSDKDPVIERAISLLPKDIQTRRYRRMLRGTHINYLRLFLHPSEQNYDPYIPYLAPYIEEAKFQLQEEEELLGYHPYDRRLYSGGTTGFGDLEPGLHFLVSIPNLYGAAIPHSKKK”, the “soluble on expression in E. coli” value was “soluble”.

In the case of “MGSDKIHHHHHHMAYLEVLRYLYHKRPMGKVKPGLERISMLLSKLGNPHLEYKTIHIGGTNGKGSVANMVSNILVSQGYRVGSYYSPHLSTFRERIRLNEEYISEEDVVKIYETMEPILNELDKEEIFSPSFFEVVTAMAFLYFAEKNVDIAVLEVGLGGRLDATNVVFPLCSTIVTVDRDHEKTLGYTIEQIAWEKSGIIKERVPLVTGERKREALKVMEDVARKKSSRMYVIDKDFSVKVKSLKLHENRFDYCGENTFEDLVLTMNGPHQIENAGVALKTLEATGLPLSEKAIREGLKNAKNLGRFEILEKNGKMYILDGAHNPHGAESLVRSLKLYFNGEPLSLVIGILDDKNREDILRKYTGIFERVIVTRVPSPRMKDMNSLVDMAKKFFKNVEVIEDPLEAIESTERATVVTGSLFLVGYVREFLTTGKINEEWKL”, the “soluble on expression in E. coli” value is recorded as “soluble”.

Regarding “MGSDKIHHHHHHMPNIIIIERDINYLKIFIKCMKESGFEVVCMNNTKLVSQVAQKQLPDLIICSLEIAKQNNCNFWNNLCQNFVTATIPLIFLINEASEIYQCPEFAADGYITKFCTTEELNKAIKAQLAKQAARKHGYAIQSQQVLNSPSIGNDQPNVQSILPSIPRLNLVFEFIAANYDKPISLCDVAEALGYSATYLTTVVTQTTGKSLQKWIIECRITAAQILLLQTDQSVNQIALKVGYENLAHFYRQFRDYHGTSPQVWREVEKSHNSHQLNKDKASLNSNNFGDFQ”, the “soluble on expression in E. coli” value is reported as “not soluble”.

The values above are taken from the DeepSol protein solubility set.
